This is an account of results in patent US20160185876A1 (DEVELOPMENT CENTER FOR BIOTECHNOLOGY, published 2016).

The target in experiment [1] is T1, human ENO1 protein (human, UniProt P06733 1-434, limits assumed).
T1 construct: The source and construct of the ENO1 protein used in ELISA and SPR are not described; also called alpha-enolase; enolase-1
Kind of experiment: SPR, BIAcore 2000, ENO1 injected, 25 degree C. The source says: To know the biding kinetics difference among individual antibodies, surface plasmon resonance (SPR) measurement with a BIAcore 2000 (BIAcore, Inc., Piscataway, N.J.) was used as previously described (Karlsson & Falt, (1997) J. Immunol Methods 200:121-133). Carboxymethylated dextran biosensor chips (CMS, BIAcore Inc.) were activated with N-ethyl-N′-(3-dimethylaminopropyl)-carbodiimide hydrochloride (EDC) and N-hydroxysuccinimide (NHS) according to the supplier's instructions. Chimera EN10 mAb was diluted with 10 mM sodium acetate, pH 4.8, into 5 microgram/ml before injection at a flow rate of 20 micro Uminute to achieve approximately 100 response units (RU) of coupled protein followed by the injection of 1M ethanolamine to block unreacted groups. For kinetics measurements, two-fold serial dilutions of ENO1 (0.3125 nM to 40 nM) were injected in HBS-P Biacore running buffer provided by the manufacturer (BIAcore, Inc., Piscataway, N.J.) at 25 degree C. at a flow rate of 25 microL/min, and binding responses on the EN10 mAb were corrected by subtraction of responses on a blank flow cell. Association rates (kon or ka) and dissociation rates (koff or kd) were calculated using a simple one-to-one Langmuir binding model with separate fittings of kon and koff was used. (BIAcore™ Evaluation Software version 3.2).
(In general: SPR reads the build-up and loss of mass on a sensor chip optically.)

Experiment [2] addresses T1, human ENO1 protein. Kind of experiment: ENO1 binding ELISA. Background: An ELISA detects its analyte on a solid surface through an enzyme-linked reagent.

T1 sequence (P06733 whole entry): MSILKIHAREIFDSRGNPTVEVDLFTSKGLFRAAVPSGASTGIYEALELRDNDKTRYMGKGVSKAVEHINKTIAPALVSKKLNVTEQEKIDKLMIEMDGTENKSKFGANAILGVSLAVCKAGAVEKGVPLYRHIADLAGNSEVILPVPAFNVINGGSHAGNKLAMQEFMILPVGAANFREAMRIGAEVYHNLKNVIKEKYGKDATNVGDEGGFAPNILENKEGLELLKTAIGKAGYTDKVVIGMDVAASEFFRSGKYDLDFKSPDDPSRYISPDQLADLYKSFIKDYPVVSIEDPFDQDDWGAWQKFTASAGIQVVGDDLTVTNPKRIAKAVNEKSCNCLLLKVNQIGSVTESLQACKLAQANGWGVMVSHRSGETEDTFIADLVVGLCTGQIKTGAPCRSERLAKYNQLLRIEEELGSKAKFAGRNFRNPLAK

B1: hum EN10 mAb 4D5 (antibody, V domains shown)
VH: EVQLVESGGGLVQPGGSLRLSCAASGYTFTSCVMNWVRQAPGKGLEWVAYINPYNDGTKYNEKFKGRFTISRDDSKNTLYLQMNSLRAEDTAVYYCAREGFYYGNFDNWGQGTLVTVSS
VL: DIQMTQSPSSLSASVGDRVTITCRASENIYSYLTWYQQKPGKAPKLLIYNAKTLPEGVPSRFSGSGSGTDFTLTISSLQPEDFATYYCQHHYGTPYTFGQGTKLEIKR
notes: Humanized variable regions on human IgG; also called humanized EN10 mAb 4D5; 4D5 humanized edition
For B1, in the experiment with human ENO1 protein [1], the equilibrium dissociation constant (Kd) – broadly, the constant that tells how readily two partners part at equilibrium – turned out to be 0.5 nM; the koff – broadly, the rate constant with which the complex falls apart – was found to be 0.000176 s⁻¹; the kon (in general, the second-order rate constant of association) turned out to be 351000 M⁻¹ s⁻¹.

B2: hum EN10 mAb IMGT (antibody, V domains shown)
VH: QVQLVQSGAEVKKPGASVKVSCKASGYTFTSCVMNWVRQAPGQGLEWMGYINPYNDGTKYNEKFKGRVTMTTDTSTSTAYMELRSLRSDDTAVYYCAREGFYYGNFDNWGQGTLVTVSS
VL: DIQMTQSPSSLSASVGDRVTITCRASENIYSYLTWYQQKPGKAPKLLIYNAKTLPEGVPSRFSGSGSGTDFTLTISSLQPEDFATYYCQHHYGTPYTFGQGTKLEIKR
notes: Humanized variable regions on human IgG; also called Hum EN10 IMGT; humanized EN10 mAb IMGT
In the experiment with human ENO1 protein [1], B2 came in with an equilibrium dissociation constant (Kd) of 0.219 nM, a koff of 0.000116 s⁻¹ and an on-rate (kon) of 531000 M⁻¹ s⁻¹. In addition, binding with human ENO1 protein [2] was put at a Kd of 0.0365 nM.
